From patent US20040146507A1 (Genentech, published 2004)
Residue numbers refer to the chain shown, from its start.

T1: rhesus CD11a (rhesus, UniProt H9Z8N3 26-1169)
T1 construct: whole, on cells; On rhesus peripheral blood lymphocytes or leukocytes; also called rhCD11a
T1 sequence: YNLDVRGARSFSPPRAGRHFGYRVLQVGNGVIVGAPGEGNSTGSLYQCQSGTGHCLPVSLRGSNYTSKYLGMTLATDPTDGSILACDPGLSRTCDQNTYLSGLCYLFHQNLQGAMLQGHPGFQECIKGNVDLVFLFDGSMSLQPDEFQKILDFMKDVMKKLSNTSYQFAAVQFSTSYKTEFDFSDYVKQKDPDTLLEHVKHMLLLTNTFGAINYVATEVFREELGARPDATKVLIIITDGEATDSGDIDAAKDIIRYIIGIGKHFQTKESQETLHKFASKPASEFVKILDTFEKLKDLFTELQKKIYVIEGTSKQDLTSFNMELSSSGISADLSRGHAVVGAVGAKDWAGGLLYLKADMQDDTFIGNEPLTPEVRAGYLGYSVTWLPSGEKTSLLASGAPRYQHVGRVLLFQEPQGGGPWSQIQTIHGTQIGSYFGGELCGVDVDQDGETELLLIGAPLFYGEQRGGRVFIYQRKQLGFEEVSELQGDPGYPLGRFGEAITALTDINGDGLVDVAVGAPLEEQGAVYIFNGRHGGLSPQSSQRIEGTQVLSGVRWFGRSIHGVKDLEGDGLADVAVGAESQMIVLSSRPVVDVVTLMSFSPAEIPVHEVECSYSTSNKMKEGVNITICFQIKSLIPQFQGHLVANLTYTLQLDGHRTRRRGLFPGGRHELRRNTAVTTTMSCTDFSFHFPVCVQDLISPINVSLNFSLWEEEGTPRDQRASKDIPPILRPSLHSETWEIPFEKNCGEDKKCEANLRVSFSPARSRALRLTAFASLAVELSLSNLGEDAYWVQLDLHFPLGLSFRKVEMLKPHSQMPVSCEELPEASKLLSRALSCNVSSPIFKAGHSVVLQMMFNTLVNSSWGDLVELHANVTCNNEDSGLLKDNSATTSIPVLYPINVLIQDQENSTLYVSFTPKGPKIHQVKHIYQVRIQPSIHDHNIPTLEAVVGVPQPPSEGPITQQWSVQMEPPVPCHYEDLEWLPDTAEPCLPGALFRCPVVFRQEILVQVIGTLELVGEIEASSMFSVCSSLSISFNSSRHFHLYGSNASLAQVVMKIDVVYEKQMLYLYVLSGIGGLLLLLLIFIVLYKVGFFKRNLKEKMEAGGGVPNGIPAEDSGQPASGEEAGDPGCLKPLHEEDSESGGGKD

B1: HuIgG1 mutant AsnL92Ala (antibody, V domains shown)
VH: EVQLVESGGGLVQPGGSLRLSCAASGYSFTGHWMNWVRQAPGKGLEWVGMIHPSDSETRYNQKFKDRFTISVDKSKNTLYLQMNSLRAEDTAVYYCARGIYFYGTTYFDYWGQGTLVTVSS
VL: DIQMTQSPSSLSASVGDRVTITCRASKTISKYLAWYQQKPGKAPKLLIYSGSTLQSGVPSRFSGSGSGTDFTLTISSLQPEDFATYYCQQHAEYPLTFGQGTKVEIKR
notes: HuIgG1 mutant, human IgG1; Kabat numbering
B2: HuIgG1 mutant ThrL53Ala (antibody, V domains shown)
VH: B1 VH
VL: B1 VL with T53A, A92N
notes: as for B1
B3: HuIgG1 mutant H3B (antibody, V domains shown)
VH: B1 VH with T105A, T106A, Y107A
VL: DIQMTQSPSSLSASVGDRVTITCRASKTISKYLAWYQQKPGKAPKLLIYSGSTLQSGVPSRFSGSGSGTDFTLTISSLQPEDFATYYCQQHNEYPLTFGQGTKVEIK
notes: as for B1
B4: HuIgG1 mutant HisH52Ala (antibody, V domains shown)
VH: B1 VH with H52A
VL: B3 VL
notes: as for B1
B5: HuIgG1 mutant SerH28Ala (antibody, V domains shown)
VH: B1 VH with S28A
VL: B3 VL
notes: as for B1
B6: HuIgG1 mutant GluL93Ala (antibody, V domains shown)
VH: B1 VH
VL: B1 VL with A92N, E93A
notes: as for B1
B7: HuIgG1 mutant H2A2 (antibody, V domains shown)
VH: B1 VH with S54A, S56A
VL: B3 VL
notes: as for B1
B8: HuIgG1 mutant TyrH99Ala (antibody, V domains shown)
VH: B1 VH with Y103A
VL: B3 VL
notes: as for B1
B9: HuIgG1 mutant GlyH31Ala (antibody, V domains shown)
VH: B1 VH with G31A
VL: B3 VL
notes: as for B1
B10: HuIgG1 mutant GlnH61Ala (antibody, V domains shown)
VH: B1 VH with Q62A
VL: B3 VL
notes: as for B1
B11: HuIgG1 mutant LysH73Ala (antibody, V domains shown)
VH: B1 VH with K74A
VL: B3 VL
notes: as for B1
B12: HuIgG1 mutant LysH62Ala (antibody, V domains shown)
VH: B1 VH with K63A
VL: B3 VL
notes: as for B1
B13: HuIgG1 mutant TyrL94Ala (antibody, V domains shown)
VH: B1 VH
VL: B1 VL with A92N, Y94A
notes: as for B1
B14: HuIgG1 mutant LysH64Ala (antibody, V domains shown)
VH: B1 VH with K65A
VL: B3 VL
notes: as for B1
B15: HuIgG1 mutant L2 (antibody, V domains shown)
VH: B1 VH
VL: B1 VL with S50A, S52A, T53A, A92N
notes: as for B1
B16: HuIgG1 mutant SerH55Asn (antibody, V domains shown)
VH: B1 VH with S56N
VL: B3 VL
notes: as for B1
B17: HuIgG1 mutant LysH73Arg (antibody, V domains shown)
VH: B1 VH with K74R
VL: B3 VL
notes: as for B1
B18: HuIgG1 mutant HisH32Ala (antibody, V domains shown)
VH: B1 VH with H32A
VL: B3 VL
notes: as for B1
B19: HuIgG1 mutant SerL52Ala (antibody, V domains shown)
VH: B1 VH
VL: B1 VL with S52A, A92N
notes: as for B1
B20: HuIgG1 mutant H2A3 (antibody, V domains shown)
VH: B1 VH with H52A, S56A
VL: B3 VL
notes: as for B1
B21: HuIgG1 mutant TyrH97Ala (antibody, V domains shown)
VH: B1 VH with Y101A
VL: B3 VL
notes: as for B1
B22: HuIgG1 mutant HisH52Ser (antibody, V domains shown)
VH: B1 VH with H52S
VL: B3 VL
notes: as for B1
B23: HuIgG1 mutant AspH65Ala (antibody, V domains shown)
VH: B1 VH with D66A
VL: B3 VL
notes: as for B1
B24: HuIgG1 mutant SerH53Ala (antibody, V domains shown)
VH: B1 VH with S54A
VL: B3 VL
notes: as for B1
B25: HuIgG1 mutant ThrH100bAla (antibody, V domains shown)
VH: B1 VH with T106A
VL: B3 VL
notes: as for B1
B26: HuIgG1 mutant L1 (antibody, V domains shown)
VH: B1 VH
VL: B1 VL with K27A, T28A, S30A, K31A, A92N
notes: as for B1
B27: HuIgG1 mutant H1 (antibody, V domains shown)
VH: B1 VH with S28A, T30A, H32A
VL: B3 VL
notes: as for B1
B28: HuIgG1 mutant ArgH58Ala (antibody, V domains shown)
VH: B1 VH with R59A
VL: B3 VL
notes: as for B1
B29: HuIgG1 mutant SerL50Ala (antibody, V domains shown)
VH: B1 VH
VL: B1 VL with S50A, A92N
notes: as for B1
B30: HuIgG1 mutant TyrH100cAla (antibody, V domains shown)
VH: B1 VH with Y107A
VL: B3 VL
notes: as for B1
B31: HuIgG1 mutant ThrH100aAla (antibody, V domains shown)
VH: B1 VH with T105A
VL: B3 VL
notes: as for B1

The binders below were run against T2, human CD11a (human, UniProt P20701 26-1170) (assay: FACScan, Jurkat cells).
T2 construct: whole, on cells; On Jurkat T-cells or human peripheral blood mononuclear cells, as part of LFA-1; also called CD11a on Jurkat cells; alpha subunit of LFA-1
Experimental: Aliquots of 10⁶ Jurkat T-cells were incubated with serial dilutions of humanized and control antibodies in PBS-0.1% BSA-10 mM sodium azide for 45 min at 4° C. The cells were washed and then incubated in fluorescein-conjugated goat anti-human F(ab′)₂ (Organon Teknika, Westchester, Pa.) for 45 min at 4° C. Cells were washed and analysed on a FACScan (Becton Dickinson, Mountain View, Calif.). 8×10³ cells were acquired by list mode and gated by forward light scatter versus side light scatter, thereby excluding dead cells and debris.
To determine which CDR residues were involved in binding to human CD11a an alanine-scan (Cunningham et al., Science 244:1081 (1989)) was performed on the CDR residues of HuIgG1. Each mutant was tested for binding to CD11a on Jurkat cells. In the light chain only CDR-L3 contributes to binding.

Q: Which “Var.EC50/HuIgG1 EC50” value does the source give for B1 here?
A: Its value is 3.3 ratio.

Q: How did the “Var.EC50/HuIgG1 EC50” value turn out when B2 was run?
A: The value was 0.9 ratio.

Q: Which “Var.EC50/HuIgG1 EC50” value does the source give for B3 here?
A: The value was 34.7 ratio.

Q: Which “Var.EC50/HuIgG1 EC50” value does the source give for B4 here?
A: The value was 1.5 ratio.

Q: For B5, which “Var.EC50/HuIgG1 EC50” value is on record?
A: The value was 6.9 ratio.

Q: With B6 as the binder, how does the “Var.EC50/HuIgG1 EC50” value read?
A: The value was 1.7 ratio.

Q: B7 was tested. Which “Var.EC50/HuIgG1 EC50” value did it give?
A: The value was 1.9 ratio.

Q: B8 was tested. Which “Var.EC50/HuIgG1 EC50” value did it give?
A: The value was 1.4 ratio.

Q: B9 was tested. Which “Var.EC50/HuIgG1 EC50” value did it give?
A: Its value is 1.2 ratio.

Q: With B10 as the binder, how does the “Var.EC50/HuIgG1 EC50” value read?
A: Its value is 4.1 ratio.

Q: B11 was tested. Which “Var.EC50/HuIgG1 EC50” value did it give?
A: Its value is 5.2 ratio.

Q: Which “Var.EC50/HuIgG1 EC50” value does the source give for B12 here?
A: The value was 1.8 ratio.

Q: How did the “Var.EC50/HuIgG1 EC50” value turn out when B13 was run?
A: The value was 11.8 ratio.

Q: B14 was tested. Which “Var.EC50/HuIgG1 EC50” value did it give?
A: The value was 2.5 ratio.

Q: Which “Var.EC50/HuIgG1 EC50” value does the source give for B15 here?
A: The value was 1.1 ratio.

Q: How did the “Var.EC50/HuIgG1 EC50” value turn out when B16 was run?
A: Its value is 2.1 ratio.

Q: Which “Var.EC50/HuIgG1 EC50” value does the source give for B17 here?
A: Its value is 4.6 ratio.

Q: With B18 as the binder, how does the “Var.EC50/HuIgG1 EC50” value read?
A: Its value is 2.3 ratio.

Q: With B19 as the binder, how does the “Var.EC50/HuIgG1 EC50” value read?
A: The value was 1.1 ratio.

Q: B20 was tested. Which “Var.EC50/HuIgG1 EC50” value did it give?
A: Its value is 4.6 ratio.

Q: Which “Var.EC50/HuIgG1 EC50” value does the source give for B21 here?
A: The value was 10.9 ratio.

Q: Which “Var.EC50/HuIgG1 EC50” value does the source give for B22 here?
A: Its value is 5 ratio.

Q: With B23 as the binder, how does the “Var.EC50/HuIgG1 EC50” value read?
A: Its value is 0.8 ratio.

Q: Which “Var.EC50/HuIgG1 EC50” value does the source give for B24 here?
A: The value was 1.8 ratio.

Q: For B25, which “Var.EC50/HuIgG1 EC50” value is on record?
A: The value was 1.4 ratio.

Q: With B26 as the binder, how does the “Var.EC50/HuIgG1 EC50” value read?
A: Its value is 1.3 ratio.

Q: Which “Var.EC50/HuIgG1 EC50” value does the source give for B27 here?
A: Its value is 5.9 ratio.

Q: Which “Var.EC50/HuIgG1 EC50” value does the source give for B28 here?
A: Its value is 1.1 ratio.

Q: B29 was tested. Which “Var.EC50/HuIgG1 EC50” value did it give?
A: The value was 1.2 ratio.

Q: For B30, which “Var.EC50/HuIgG1 EC50” value is on record?
A: The value was 7.6 ratio.

Q: How did the “Var.EC50/HuIgG1 EC50” value turn out when B31 was run?
A: The value was 2.3 ratio.

These binders were tested against T1, rhesus CD11a (assay: rhesus PBL binding).

Q: With B1 as the binder, how does the “Var.EC50/HuIgG1 EC50” value read?
A: Its value is 3.3 ratio.

Q: How did the “Var.EC50/HuIgG1 EC50” value turn out when B2 was run?
A: Its value is 0.7 ratio.

Q: B4 was tested. Which “Var.EC50/HuIgG1 EC50” value did it give?
A: Its value is 0.7 ratio.

Q: B6 was tested. Which “Var.EC50/HuIgG1 EC50” value did it give?
A: Its value is 2.9 ratio.

Q: B7 was tested. Which “Var.EC50/HuIgG1 EC50” value did it give?
A: Its value is 1.1 ratio.

Q: For B9, which “Var.EC50/HuIgG1 EC50” value is on record?
A: Its value is 2.4 ratio.

Q: B10 was tested. Which “Var.EC50/HuIgG1 EC50” value did it give?
A: Its value is 5.3 ratio.

Q: How did the “Var.EC50/HuIgG1 EC50” value turn out when B12 was run?
A: Its value is 4.9 ratio.

Q: For B14, which “Var.EC50/HuIgG1 EC50” value is on record?
A: The value was 1.2 ratio.

Q: With B17 as the binder, how does the “Var.EC50/HuIgG1 EC50” value read?
A: The value was 5.5 ratio.

Q: With B20 as the binder, how does the “Var.EC50/HuIgG1 EC50” value read?
A: The value was 1.3 ratio.

Q: Which “Var.EC50/HuIgG1 EC50” value does the source give for B23 here?
A: Its value is 1.1 ratio.

Q: B24 was tested. Which “Var.EC50/HuIgG1 EC50” value did it give?
A: The value was 0.7 ratio.

Q: How did the “Var.EC50/HuIgG1 EC50” value turn out when B26 was run?
A: The value was 1 ratio.

Q: B28 was tested. Which “Var.EC50/HuIgG1 EC50” value did it give?
A: The value was 3.3 ratio.

Q: With B29 as the binder, how does the “Var.EC50/HuIgG1 EC50” value read?
A: The value was 2.7 ratio.
